The values below come from article PMC9474881.

The target in the experiment is PsgIBP_L, larger (28 kDa) ice-binding protein isoform from Psychromyces glacialis (Psychromyces glacialis). The experiment is described as follows: SEC; analytical Superose12 column, 20 mM Tris-HCl pH 8.0 + 500 mM NaCl, 0.8 ml/min, 4 °C; 0.5 mL of 1 mg/ml protein loaded; molecular weight from a calibration line with five reference proteins.

Turning to “PsgIBP_L, larger (28 kDa) ice-binding protein isoform from Psychromyces glacialis (natural protein)”, the stoichiometry N worked out at 2.

In general, stoichiometry N refers to the number of molecules, sites or subunits per partner or assembly.
